Kinase activity of anti-HA-LIMK2 immunoprecipitate on GST-cofilin (32P, P-cofilin), cells cotransfected with SecPH against the control Galectin-3 data for 1 substance are collected here from PMC3474823.

In this assay the target is HA-LIMK2 (pcDNA3-(HA)2-LIMK2) (UniProt P53671).
Chain of UniProt P53671 (P53671 whole entry): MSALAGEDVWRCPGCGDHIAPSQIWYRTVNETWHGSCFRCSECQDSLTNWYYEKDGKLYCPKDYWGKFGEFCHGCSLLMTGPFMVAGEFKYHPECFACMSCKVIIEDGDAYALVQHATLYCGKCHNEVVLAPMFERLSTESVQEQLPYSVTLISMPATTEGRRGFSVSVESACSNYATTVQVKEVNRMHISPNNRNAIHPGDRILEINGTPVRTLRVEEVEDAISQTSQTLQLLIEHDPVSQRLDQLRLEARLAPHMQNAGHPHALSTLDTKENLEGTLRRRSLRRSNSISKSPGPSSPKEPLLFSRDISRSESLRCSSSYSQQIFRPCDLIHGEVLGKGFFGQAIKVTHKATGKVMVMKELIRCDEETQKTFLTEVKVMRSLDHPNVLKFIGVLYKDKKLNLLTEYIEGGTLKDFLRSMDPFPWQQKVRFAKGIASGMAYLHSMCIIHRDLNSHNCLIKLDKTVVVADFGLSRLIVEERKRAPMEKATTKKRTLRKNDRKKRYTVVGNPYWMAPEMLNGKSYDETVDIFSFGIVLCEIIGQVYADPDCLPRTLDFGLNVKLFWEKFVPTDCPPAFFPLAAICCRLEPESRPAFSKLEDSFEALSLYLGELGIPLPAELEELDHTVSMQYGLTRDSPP

“flag-SecPH (p3XFlag-SecPH) (domain or fragment)” showed a kinase activity of anti-HA-LIMK2 immunoprecipitate on GST-cofilin (32P, P-cofilin), cells cotransfected with SecPH against the control Galectin-3 of 20%.
